From patent publication US20210246166A1 (Bayer, published 2021)
Numbered stars: 1 amine (or outer) side, 2 acyl side, 3 side chain; on linkers, the order of the positions; unused ones are H or OH. Bridge positions count the residues as written; N and C are the ends. Square brackets hold non-standard residues; d marks the D form. Ends that are not written are not given here. * marks the point of attachment. cPrCO(1-aminomethyl) = O=C(C1(CN[*:1])CC1)[*:2]; Dihydroorotyl(S) = O=C1C[C@@H](C(=O)*)NC(=O)N1; Oic = O=C(O)[C@@H]1C[C@@H]2CCCC[C@@H]2N1; PEG7 = NCCOCCOCCOCCOCCOCCOCCOCCC(=O)O; tBuAla = CC(C)(C)C[C@H](N)C(=O)O; 3Pal = N[C@@H](Cc1cccnc1)C(=O)O; PEG5 = NCCOCCOCCOCCOCCOCCC(=O)O; 2Thi = N[C@@H](Cc1cccs1)C(=O)O; Pen = CC(C)(S)[C@H](N)C(=O)O; NMeC = CN[C@@H](CS)C(=O)O; Orn = NCCC[C@H](N)C(=O)O; GABA = NCCCC(=O)O; Sar = CNCC(=O)O

What follows are binders tested against T1, recombinant human MASP1 active protease (amino acids 297-699, C-terminal His Tag) (human, UniProt P48740 297-699) (assay: cell-based or functional assay).
T1 sequence: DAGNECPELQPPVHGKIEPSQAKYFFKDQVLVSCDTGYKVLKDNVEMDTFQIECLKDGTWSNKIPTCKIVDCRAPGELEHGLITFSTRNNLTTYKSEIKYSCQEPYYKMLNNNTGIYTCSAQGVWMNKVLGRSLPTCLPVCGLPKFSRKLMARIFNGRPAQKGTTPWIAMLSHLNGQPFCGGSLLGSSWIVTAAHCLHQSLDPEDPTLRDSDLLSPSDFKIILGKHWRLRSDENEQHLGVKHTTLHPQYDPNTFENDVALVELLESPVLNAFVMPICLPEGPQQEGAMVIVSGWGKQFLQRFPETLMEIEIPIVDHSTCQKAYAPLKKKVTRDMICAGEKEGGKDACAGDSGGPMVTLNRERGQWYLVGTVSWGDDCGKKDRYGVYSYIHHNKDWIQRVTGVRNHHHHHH

Row | Binder | human MASP1 IC50 [nM]
1 | [(1R,3S,4S)‑2‑azabicyclo(2.2.1)heptane‑3‑carboxylic acid]ICSRS[tBuAla]PPI[Pen]IP-NH2 (disulfide 3-11) [((1R,3S,4S)-2-azabicyclo[2.2.1]heptane-3-carboxylic acid)-IC+SRS-((tBu)A)-PPI-(Pen)+IP-NH2] | 1.6
2 | [Sar]ICSRSLP[Oic]I[Pen]IP[PEG5]-NH2 (disulfide 3-11; N-terminus assumed; SMILES CC[C@H](C)[C@H](NC(=O)CNC)C(=O)N[C@H]1CSSC(C)(C)[C@@H](C(=O)N[C@H](C(=O)N2CCC[C@H]2C(=O)NCCOCCOCCOCCOCCOCCC(N)=O)[C@@H](C)CC)NC(=O)[C@H]([C@@H](C)CC)NC(=O)[C@@H]2C[C@@H]3CCCC[C@@H]3N2C(=O)[C@@H]2CCCN2C(=O)[C@H](CC(C)C)NC(=O)[C@H](CO)NC(=O)[C@H](CCCNC(=N)N)NC(=O)[C@H](CO)NC1=O) [((N-Me)G)-IC+SRSLP-(Oic)-I-(Pen)+IP-(PEG4(19 atoms))-NH2] | 2.6
3 | AICSRSLP[Oic]I[Pen]IPD-OH (disulfide 3-11; also: TFA salt) [AIC+SRSLP-(Oic)-I-(Pen)+IPD-OH] | 1.85
4 | [Sar]ICSRSLP[Oic]I[Pen]IP[PEG7]-NH2 (disulfide 3-11; N-terminus assumed; SMILES CC[C@H](C)[C@H](NC(=O)CNC)C(=O)N[C@H]1CSSC(C)(C)[C@@H](C(=O)N[C@H](C(=O)N2CCC[C@H]2C(=O)NCCOCCOCCOCCOCCOCCOCCOCCC(N)=O)[C@@H](C)CC)NC(=O)[C@H]([C@@H](C)CC)NC(=O)[C@@H]2C[C@@H]3CCCC[C@@H]3N2C(=O)[C@@H]2CCCN2C(=O)[C@H](CC(C)C)NC(=O)[C@H](CO)NC(=O)[C@H](CCCNC(=N)N)NC(=O)[C@H](CO)NC1=O) [((N-Me)G)-IC+SRSLP-(Oic)-I-(Pen)+IP-(PEG7(25 atoms))-NH2] | 3.7
5 | [Orn]ICSRS[tBuAla]PPI[Pen]IPD-OH (disulfide 3-11; N-terminus assumed; SMILES CC[C@H](C)[C@H](NC(=O)[C@@H](N)CCCN)C(=O)N[C@H]1CSSC(C)(C)[C@@H](C(=O)N[C@H](C(=O)N2CCC[C@H]2C(=O)N[C@@H](CC(=O)O)C(=O)O)[C@@H](C)CC)NC(=O)[C@H]([C@@H](C)CC)NC(=O)[C@@H]2CCCN2C(=O)[C@@H]2CCCN2C(=O)[C@H](CC(C)(C)C)NC(=O)[C@H](CO)NC(=O)[C@H](CCCNC(=N)N)NC(=O)[C@H](CO)NC1=O) [(Orn)-IC+SRS-((tBu)A)-PPI-(Pen)+IPD-OH] | 1.35
6 | AICSRS[tBuAla]P[Oic]ICI-NH2 (disulfide 3-11; N-terminus assumed; SMILES CC[C@H](C)[C@H](NC(=O)[C@@H]1CSSC[C@H](NC(=O)[C@@H](NC(=O)[C@H](C)N)[C@@H](C)CC)C(=O)N[C@@H](CO)C(=O)N[C@@H](CCCNC(=N)N)C(=O)N[C@@H](CO)C(=O)N[C@@H](CC(C)(C)C)C(=O)N2CCC[C@H]2C(=O)N2[C@@H](C[C@@H]3CCCC[C@@H]32)C(=O)N[C@@H]([C@@H](C)CC)C(=O)N1)C(N)=O) [AIC+SRS-((tBu)A)-P-(Oic)-IC+I-NH2, listing 1 of 2 here] | 2.7
7 | [Sar]ICSRS[tBuAla]PPI[Pen]IP[PEG7]-NH2 (disulfide 3-11; N-terminus assumed; SMILES CC[C@H](C)[C@H](NC(=O)CNC)C(=O)N[C@H]1CSSC(C)(C)[C@@H](C(=O)N[C@H](C(=O)N2CCC[C@H]2C(=O)NCCOCCOCCOCCOCCOCCOCCOCCC(N)=O)[C@@H](C)CC)NC(=O)[C@H]([C@@H](C)CC)NC(=O)[C@@H]2CCCN2C(=O)[C@@H]2CCCN2C(=O)[C@H](CC(C)(C)C)NC(=O)[C@H](CO)NC(=O)[C@H](CCCNC(=N)N)NC(=O)[C@H](CO)NC1=O) [((N-Me)G)-IC+SRS-((tBu)A)-PPI-(Pen)+IP-(PEG7(25 atoms))-NH2] | 1.6
8 | [Dihydroorotyl(S)]ICSRS[tBuAla]PPI[Pen]IPD-NH2 (disulfide 3-11; SMILES CC[C@H](C)[C@H](NC(=O)[C@@H]1CC(=O)NC(=O)N1)C(=O)N[C@H]1CSSC(C)(C)[C@@H](C(=O)N[C@H](C(=O)N2CCC[C@H]2C(=O)N[C@@H](CC(=O)O)C(N)=O)[C@@H](C)CC)NC(=O)[C@H]([C@@H](C)CC)NC(=O)[C@@H]2CCCN2C(=O)[C@@H]2CCCN2C(=O)[C@H](CC(C)(C)C)NC(=O)[C@H](CO)NC(=O)[C@H](CCCNC(=N)N)NC(=O)[C@H](CO)NC1=O) [(Hoo)-IC+SRS-((tBu)A)-PPI-(Pen)+IPD-NH2] | 3
9 | AICSRSLP[Oic]I[NMeC]IP-NH2 (disulfide 3-11; N-terminus assumed; SMILES CC[C@H](C)[C@H](NC(=O)[C@H](C)N)C(=O)N[C@H]1CSSC[C@@H](C(=O)N[C@H](C(=O)N2CCC[C@H]2C(N)=O)[C@@H](C)CC)N(C)C(=O)[C@H]([C@@H](C)CC)NC(=O)[C@@H]2C[C@@H]3CCCC[C@@H]3N2C(=O)[C@@H]2CCCN2C(=O)[C@H](CC(C)C)NC(=O)[C@H](CO)NC(=O)[C@H](CCCNC(=N)N)NC(=O)[C@H](CO)NC1=O) [AIC+SRSLP-(Oic)-I-((N-Me)C)+IP-NH2] | 3.2
10 | AICSRS[tBuAla]P[Oic]ICI-NH2 (disulfide 3-11; N-terminus assumed; SMILES CC[C@H](C)[C@H](NC(=O)[C@@H]1CSSC[C@H](NC(=O)[C@@H](NC(=O)[C@H](C)N)[C@@H](C)CC)C(=O)N[C@@H](CO)C(=O)N[C@@H](CCCNC(=N)N)C(=O)N[C@@H](CO)C(=O)N[C@@H](CC(C)(C)C)C(=O)N2CCC[C@H]2C(=O)N2[C@@H](C[C@@H]3CCCC[C@@H]32)C(=O)N[C@@H]([C@@H](C)CC)C(=O)N1)C(N)=O) [AIC+SRS-((tBu)A)-P-(Oic)-IC+I-NH2, listing 2 of 2 here] | 3.3
11 | [3Pal]ICSRS[tBuAla]PPI[Pen]IPD-NH2 (disulfide 3-11; N-terminus assumed; SMILES CC[C@H](C)[C@H](NC(=O)[C@@H](N)Cc1cccnc1)C(=O)N[C@H]1CSSC(C)(C)[C@@H](C(=O)N[C@H](C(=O)N2CCC[C@H]2C(=O)N[C@@H](CC(=O)O)C(N)=O)[C@@H](C)CC)NC(=O)[C@H]([C@@H](C)CC)NC(=O)[C@@H]2CCCN2C(=O)[C@@H]2CCCN2C(=O)[C@H](CC(C)(C)C)NC(=O)[C@H](CO)NC(=O)[C@H](CCCNC(=N)N)NC(=O)[C@H](CO)NC1=O) [(3-Pal)-IC+SRS-((tBu)A)-PPI-(Pen)+IPD-NH2] | 2.6
12 | AICSRSLP[Oic]I[Pen]IPD-NH2 (disulfide 3-11; also: HCl salt) [AIC+SRSLP-(Oic)-I-(Pen)+IPD-NH2 (HCl salt)] | 1.5
13 | [2Thi]ICSRS[tBuAla]PPI[Pen]IPD-NH2 (disulfide 3-11; N-terminus assumed; SMILES CC[C@H](C)[C@H](NC(=O)[C@@H](N)Cc1cccs1)C(=O)N[C@H]1CSSC(C)(C)[C@@H](C(=O)N[C@H](C(=O)N2CCC[C@H]2C(=O)N[C@@H](CC(=O)O)C(N)=O)[C@@H](C)CC)NC(=O)[C@H]([C@@H](C)CC)NC(=O)[C@@H]2CCCN2C(=O)[C@@H]2CCCN2C(=O)[C@H](CC(C)(C)C)NC(=O)[C@H](CO)NC(=O)[C@H](CCCNC(=N)N)NC(=O)[C@H](CO)NC1=O) [(beta-2-thienylalanine)-IC+SRS-((tBu)A)-PPI-(Pen)+IPD-NH2] | 2.6
14 | PICSRS[tBuAla]PPI[Pen]IP-NH2 (disulfide 3-11; N-terminus assumed; SMILES CC[C@H](C)[C@H](NC(=O)[C@@H]1CCCN1)C(=O)N[C@H]1CSSC(C)(C)[C@@H](C(=O)N[C@H](C(=O)N2CCC[C@H]2C(N)=O)[C@@H](C)CC)NC(=O)[C@H]([C@@H](C)CC)NC(=O)[C@@H]2CCCN2C(=O)[C@@H]2CCCN2C(=O)[C@H](CC(C)(C)C)NC(=O)[C@H](CO)NC(=O)[C@H](CCCNC(=N)N)NC(=O)[C@H](CO)NC1=O) [(beta-P)-IC+SRS-((tBu)A)-PPI-(Pen)+IP-NH2] | 1.1
15 | [cPrCO(1-aminomethyl)]ICSRS[tBuAla]PPI[Pen]IPD-NH2 (disulfide 3-11; N-terminus assumed; SMILES CC[C@H](C)[C@@H]1NC(=O)[C@@H]2CCCN2C(=O)[C@@H]2CCCN2C(=O)[C@H](CC(C)(C)C)NC(=O)[C@H](CO)NC(=O)[C@H](CCCNC(=N)N)NC(=O)[C@H](CO)NC(=O)[C@@H](NC(=O)[C@@H](NC(=O)C2(CN)CC2)[C@@H](C)CC)CSSC(C)(C)[C@@H](C(=O)N[C@H](C(=O)N2CCC[C@H]2C(=O)N[C@@H](CC(=O)O)C(N)=O)[C@@H](C)CC)NC1=O) [(ACMP)-IC+SRS-((tBu)A)-PPI-(Pen)+IPD-NH2] | 1.6
16 | [GABA]ICSRS[tBuAla]PPI[Pen]IPD-NH2 (disulfide 3-11; N-terminus assumed; SMILES CC[C@H](C)[C@H](NC(=O)CCCN)C(=O)N[C@H]1CSSC(C)(C)[C@@H](C(=O)N[C@H](C(=O)N2CCC[C@H]2C(=O)N[C@@H](CC(=O)O)C(N)=O)[C@@H](C)CC)NC(=O)[C@H]([C@@H](C)CC)NC(=O)[C@@H]2CCCN2C(=O)[C@@H]2CCCN2C(=O)[C@H](CC(C)(C)C)NC(=O)[C@H](CO)NC(=O)[C@H](CCCNC(=N)N)NC(=O)[C@H](CO)NC1=O) [(Gamma-Abu)-IC+SRS-((tBu)A)-PPI-(Pen)+IPD-NH2] | 3
17 | AICSRSLP[Oic]I[Pen]IPD-OH (disulfide 3-11; also: HCl salt) [AIC+SRSLP-(Oic)-I-(Pen)+IPD-OH (HCl salt)] | 2.45
18 | AICSRSLP[Oic]I[Pen]IPD-NH2 (disulfide 3-11) [AIC+SRSLP-(Oic)-I-(Pen)+IPD-NH2 (salt free form)] | 1.5
